Laboratory results from publication PMC11969024 (2025).

B1: peptide HD2 (from tick evasin EVA4) / CCL17 (biotinylated, synthetic) (parent complex)
chain 1: EEDDYTAYAPLTCYFT
chain 2: ARGTNVGRECCLEYFKGAIPLRKLKTWYQTSEDCSRDAIVFVTVQGRAICSDPNNKRVKNAVKYLQSLERS
B2: peptide HD2 (from tick evasin EVA4) / CCL8 (biotinylated, synthetic) (parent complex)
chain 1: EEDDYTAYAPLTCYFT
chain 2: QPDSVSIPITCCFNVINRKIPIQRLESYTRITNIQCPKEAVIFKTKRGKEVCADPKERWVRDSMKHLDQIFQNLKP

Variants of: B1

| Variant | enrichment |
| --- | --- |
| chain 1 F15R | 0.0833 log2 (difference from the parental peptide) |
| chain 1 E1D | 2.62 log2 (difference from the parental peptide) |
| chain 1 E2K | -0.857 log2 (difference from the parental peptide) |
| chain 1 T6P | -4.51 log2 (difference from the parental peptide) |

Variants of: B2

| Variant | enrichment |
| --- | --- |
| chain 1 P10C | -8.24 log2 (difference from the parental peptide) |
| chain 1 P10L | -8.02 log2 (difference from the parental peptide) |
| chain 1 P10R | -7.6 log2 (difference from the parental peptide) |
| chain 1 P10G | -9.74 log2 (difference from the parental peptide) |
| chain 1 P10D | -7.93 log2 (difference from the parental peptide) |
| chain 1 P10A | -8.23 log2 (difference from the parental peptide) |
| chain 1 P10Y | -6.5 log2 (difference from the parental peptide) |
| chain 1 P10Q | -5.91 log2 (difference from the parental peptide) |
| chain 1 L11W | -0.601 log2 (difference from the parental peptide) |
| chain 1 L11N | 0.274 log2 (difference from the parental peptide) |
| chain 1 L11H | 1.86 log2 (difference from the parental peptide) |
| chain 1 L11F | -0.0302 log2 (difference from the parental peptide) |
| chain 1 L11G | -1.12 log2 (difference from the parental peptide) |
| chain 1 L11E | 0.712 log2 (difference from the parental peptide) |
| chain 1 L11M | 2.26 log2 (difference from the parental peptide) |
| chain 1 L11S | 1.65 log2 (difference from the parental peptide) |
| chain 1 F15N | 1.4 log2 (difference from the parental peptide) |
| chain 1 F15C | 0.0192 log2 (difference from the parental peptide) |
| chain 1 F15H | 2.19 log2 (difference from the parental peptide) |
| chain 1 F15S | 1.91 log2 (difference from the parental peptide) |
| chain 1 F15V | 2.21 log2 (difference from the parental peptide) |
| chain 1 F15P | 2.45 log2 (difference from the parental peptide) |
| chain 1 F15Y | 1.8 log2 (difference from the parental peptide) |
| chain 1 F15W | 0.273 log2 (difference from the parental peptide) |
| chain 1 A9I | -5.81 log2 (difference from the parental peptide) |

| Variant | enrichment |
| --- | --- |
| chain 1 A9L | -3.92 log2 (difference from the parental peptide) |
| chain 1 A9W | -5.37 log2 (difference from the parental peptide) |
| chain 1 A9H | -2.52 log2 (difference from the parental peptide) |
| chain 1 A9N | -3.86 log2 (difference from the parental peptide) |
| chain 1 A9R | -0.86 log2 (difference from the parental peptide) |
| chain 1 A9F | -4.42 log2 (difference from the parental peptide) |
| chain 1 A9D | -7.75 log2 (difference from the parental peptide) |
| chain 1 A9E | 1.36 log2 (difference from the parental peptide) |
| chain 1 Y5H | -5.84 log2 (difference from the parental peptide) |
| chain 1 Y5A | -6.59 log2 (difference from the parental peptide) |
| chain 1 Y5M | -0.636 log2 (difference from the parental peptide) |
| chain 1 Y5L | -0.265 log2 (difference from the parental peptide) |
| chain 1 Y5G | -5.04 log2 (difference from the parental peptide) |
| chain 1 Y5C | -7.1 log2 (difference from the parental peptide) |
| chain 1 Y5S | -5.16 log2 (difference from the parental peptide) |
| chain 1 Y8W | 0.61 log2 (difference from the parental peptide) |
| chain 1 Y8H | -4.28 log2 (difference from the parental peptide) |
| chain 1 Y8N | -4.48 log2 (difference from the parental peptide) |
| chain 1 Y8D | -7.06 log2 (difference from the parental peptide) |
| chain 1 Y8S | -4.18 log2 (difference from the parental peptide) |
| chain 1 Y8A | -1.36 log2 (difference from the parental peptide) |
| chain 1 Y8F | 1.24 log2 (difference from the parental peptide) |
| chain 1 T16G | 1.07 log2 (difference from the parental peptide) |
| chain 1 T16V | 0.537 log2 (difference from the parental peptide) |
| chain 1 T16N | 0.543 log2 (difference from the parental peptide) |

| Variant | enrichment |
| --- | --- |
| chain 1 T16W | -0.46 log2 (difference from the parental peptide) |
| chain 1 T16Y | -0.142 log2 (difference from the parental peptide) |
| chain 1 T16K | 1.41 log2 (difference from the parental peptide) |
| chain 1 T16C | -2.39 log2 (difference from the parental peptide) |
| chain 1 Y14Q | 0.652 log2 (difference from the parental peptide) |
| chain 1 Y14T | 1.09 log2 (difference from the parental peptide) |
| chain 1 Y14V | 1.05 log2 (difference from the parental peptide) |
| chain 1 Y14S | -0.238 log2 (difference from the parental peptide) |
| chain 1 Y14E | -0.645 log2 (difference from the parental peptide) |
| chain 1 Y14G | -2.18 log2 (difference from the parental peptide) |
| chain 1 Y14F | 0.904 log2 (difference from the parental peptide) |
| chain 1 Y14D | -0.707 log2 (difference from the parental peptide) |
| chain 1 Y14K | -1.21 log2 (difference from the parental peptide) |
| chain 1 Y14R | -0.632 log2 (difference from the parental peptide) |
| chain 1 E1A | -0.674 log2 (difference from the parental peptide) |
| chain 1 E1R | -2.91 log2 (difference from the parental peptide) |
| chain 1 E1P | -0.418 log2 (difference from the parental peptide) |
| chain 1 E1C | -8.27 log2 (difference from the parental peptide) |
| chain 1 E1L | -1.2 log2 (difference from the parental peptide) |
| chain 1 E1V | -0.973 log2 (difference from the parental peptide) |
| chain 1 E1G | -0.383 log2 (difference from the parental peptide) |
| chain 1 E1D | 1.88 log2 (difference from the parental peptide) |
| chain 1 E1Y | -0.879 log2 (difference from the parental peptide) |
| chain 1 E1Q | -0.418 log2 (difference from the parental peptide) |
| chain 1 D3M | -3.45 log2 (difference from the parental peptide) |

| Variant | enrichment |
| --- | --- |
| chain 1 D3W | -2.86 log2 (difference from the parental peptide) |
| chain 1 D3L | -2.94 log2 (difference from the parental peptide) |
| chain 1 D3G | -2.58 log2 (difference from the parental peptide) |
| chain 1 D3A | -1.64 log2 (difference from the parental peptide) |
| chain 1 D3Q | -2.92 log2 (difference from the parental peptide) |
| chain 1 D3C | -7.83 log2 (difference from the parental peptide) |
| chain 1 D3N | -1.8 log2 (difference from the parental peptide) |
| chain 1 D3F | -2.94 log2 (difference from the parental peptide) |
| chain 1 D3V | -3.08 log2 (difference from the parental peptide) |
| chain 1 D3Y | -2.62 log2 (difference from the parental peptide) |
| chain 1 D3P | -2.64 log2 (difference from the parental peptide) |
| chain 1 D3I | -3.47 log2 (difference from the parental peptide) |
| chain 1 C13N | -3.72 log2 (difference from the parental peptide) |
| chain 1 C13S | -1.77 log2 (difference from the parental peptide) |
| chain 1 C13V | 0.0797 log2 (difference from the parental peptide) |
| chain 1 C13T | -0.813 log2 (difference from the parental peptide) |
| chain 1 C13R | -3.1 log2 (difference from the parental peptide) |
| chain 1 C13D | -4.59 log2 (difference from the parental peptide) |
| chain 1 C13H | -2.17 log2 (difference from the parental peptide) |
| chain 1 C13Q | -1.97 log2 (difference from the parental peptide) |
| chain 1 C13K | -4.94 log2 (difference from the parental peptide) |
| chain 1 C13M | -0.513 log2 (difference from the parental peptide) |
| chain 1 C13W | -1.28 log2 (difference from the parental peptide) |
| chain 1 A7I | 0.0548 log2 (difference from the parental peptide) |
| chain 1 A7M | 1.51 log2 (difference from the parental peptide) |

| Variant | enrichment |
| --- | --- |
| chain 1 A7D | 2.55 log2 (difference from the parental peptide) |
| chain 1 A7V | -0.376 log2 (difference from the parental peptide) |
| chain 1 A7K | 0.582 log2 (difference from the parental peptide) |
| chain 1 A7E | 2.43 log2 (difference from the parental peptide) |
| chain 1 A7S | 0.947 log2 (difference from the parental peptide) |
| chain 1 A7P | 0.181 log2 (difference from the parental peptide) |
| chain 1 D4K | -6.39 log2 (difference from the parental peptide) |
| chain 1 D4S | -2.5 log2 (difference from the parental peptide) |
| chain 1 D4H | -4.48 log2 (difference from the parental peptide) |
| chain 1 D4A | -3.07 log2 (difference from the parental peptide) |
| chain 1 D4N | -2.35 log2 (difference from the parental peptide) |
| chain 1 D4G | -2.42 log2 (difference from the parental peptide) |
| chain 1 D4R | -6.61 log2 (difference from the parental peptide) |
| chain 1 D4F | -4.31 log2 (difference from the parental peptide) |
| chain 1 D4L | -3.87 log2 (difference from the parental peptide) |
| chain 1 D4E | -0.292 log2 (difference from the parental peptide) |
| chain 1 D4V | -3.88 log2 (difference from the parental peptide) |
| chain 1 D4T | -2.87 log2 (difference from the parental peptide) |
| chain 1 D4P | -4.27 log2 (difference from the parental peptide) |
| chain 1 D4C | -7.17 log2 (difference from the parental peptide) |
| chain 1 T12G | -3.67 log2 (difference from the parental peptide) |
| chain 1 T12P | -0.165 log2 (difference from the parental peptide) |
| chain 1 T12A | -0.122 log2 (difference from the parental peptide) |
| chain 1 T12F | -1.18 log2 (difference from the parental peptide) |
| chain 1 T12M | -0.433 log2 (difference from the parental peptide) |

| Variant | enrichment |
| --- | --- |
| chain 1 T12I | -0.26 log2 (difference from the parental peptide) |
| chain 1 T12D | -1.11 log2 (difference from the parental peptide) |
| chain 1 T12H | -0.0146 log2 (difference from the parental peptide) |
| chain 1 T6C | -9.06 log2 (difference from the parental peptide) |
| chain 1 T6S | 2.06 log2 (difference from the parental peptide) |
| chain 1 T6A | 1.59 log2 (difference from the parental peptide) |
| chain 1 T6M | -0.0579 log2 (difference from the parental peptide) |
| chain 1 T6Q | 1.13 log2 (difference from the parental peptide) |
| chain 1 T6N | 0.795 log2 (difference from the parental peptide) |
| chain 1 T6P | -1.36 log2 (difference from the parental peptide) |
| chain 1 T6I | -5.53 log2 (difference from the parental peptide) |
| chain 1 T6V | -3.12 log2 (difference from the parental peptide) |
| chain 1 E2S | -1.97 log2 (difference from the parental peptide) |
| chain 1 E2A | -1.44 log2 (difference from the parental peptide) |
| chain 1 E2L | -1.7 log2 (difference from the parental peptide) |
| chain 1 E2D | 1.04 log2 (difference from the parental peptide) |
| chain 1 E2P | -2.32 log2 (difference from the parental peptide) |
| chain 1 E2H | -2.03 log2 (difference from the parental peptide) |
| chain 1 E2M | -2.24 log2 (difference from the parental peptide) |
| chain 1 E2T | -1.89 log2 (difference from the parental peptide) |
| chain 1 E2V | -1.43 log2 (difference from the parental peptide) |
